Results reported in patent US20210380703A1 (RIGEL PHARMACEUTICALS, published 2021).

Assays:
human ACVR2A = human ACVR2A (human, UniProt P27037 20-135, limits assumed); assay: ELISA
Outline: (§1)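 ELISA measured binding of ACVR2A-specific monoclonal antibodies to human and mouse ACVR2A. Biotinylated goat anti-human kappa light chain served as positive control and human Fc as negative control.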

mouse ACVR2A = mouse ACVR2A (mouse, UniProt P27038 20-135, limits assumed); assay: ELISA
Outline: as §1

[1] = molecular target: T1, biotinylated goat anti-human kappa light chain; assay: ELISA; positive control
T1 construct: Positive control of the ELISA
Outline: as §1
Further: test concentration or dose not given here.

Sequence of human ACVR2A (P27037 20-135 limits assumed): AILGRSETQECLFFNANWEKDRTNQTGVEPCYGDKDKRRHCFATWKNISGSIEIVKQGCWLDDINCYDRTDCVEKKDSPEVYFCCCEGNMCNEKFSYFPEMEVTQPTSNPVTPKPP
Sequence of mouse ACVR2A (P27038 20-135 limits assumed): as the sequence (P27037 20-135 limits assumed) above, with K20R, V73I counted along it

Binder | optical density (human ACVR2A) | optical density (mouse ACVR2A) | optical density [1]
376_A12 (antibody, V domains shown, VH/VL only) VH: EVQLLESGGGLVQPGGSLRLSCAASGFTFSSYSMNWVRQAPGKGLEWVANINYNSGYKGYADSVKGRFTISRDNSKNTLYLQMNSLRAEDTAVYYCARSANWHDTALDYWGQGTLVTVSS VL: DIQMTQSPSSLSASVGDRVTITCRASQSILSYVNWYQQKPGKAPKLVIYAATSRASGVPSRFSGSGSGTDFTLTISSLQPEDFATYYCQQSYDTPLTFGGGTKVEIK | 3.7 OD | 3.34 OD | 3.22 OD
376_B06 (antibody, V domains shown, VH/VL only) VH: EVQLLESGGGLVQPGGSLRLSCAASGFTFSSYSMNWVRQAPGKGLEWVAGINYNSGYKGYADSVKGRFTISRDNSKNTLYLQMNSLRAEDTAVYYCARSATWHDTHLDYWGQGTLVTVSS VL: DIQMTQSPSSLSASVGDRVTITCRASQSILTYLNWYQQKPGKAPKLLIYAATSRASGVPSRFSGSGSGTDFTLTISSLQPEDFATYYCQQSYDLPLTFGGGTKVEIK | 3.7 OD | 3.77 OD | 3.46 OD
376_B01 (antibody, V domains shown, VH/VL only) VH: EVQLLESGGGLVQPGGSLRLSCAASGFTFDSYSMNWVRQAPGKGLEWVAGINYNGGYTSYADSVKGRFTISRDNSKNTLYLQMNSLRAEDTAVYYCARSATWHDTHLDYWGQGTLVTVSS VL: DIQMTQSPSSLSASVGDRVTITCRASQSILTYVNWYQQKPGKAPKLVIYAATSRASGVPSRFSGSGSGTDFTLTISSLQPEDFATYYCQQSYNLPLTFGGGTKVEIK | 3.28 OD | 3.67 OD | 3.24 OD
376_E12 (antibody, V domains shown, VH/VL only) VH: EVQLLESGGGLVQPGGSLRLSCAASGFTFSSYSMNWVRQAPGKGLEWVAGINYNGGYKSYADSVKGRFTISRDNSKNTLYLQMNSLRAEDTAVYYCARSATWHDTHLDYWGQGTLVTVSS VL: not shown | 3.61 OD | 3.32 OD | 3.42 OD
376_C02 (antibody, V domains shown, VH/VL only) VH: EVQLLESGGGLVQPGGSLRLSCAASGFTFDSYGMNWVRQAPGKGLEWVSGINYNSGYTSYADSVKGRFTISRDNSKNTLYLQMNSLRAEDTAVYYCARSANWHDTALDYWGQGTLVTVSS VL: DIQMTQSPSSLSASVGDRVTITCRASQSIVSYLNWYQQKPGKAPKLVIYAVTSRASGVPSRFSGSGSGTDFTLTISSLQPEDFATYYCQQSYDSPLTFGGGTKVEIK | 3.44 OD | 3.53 OD | 3.44 OD
376_B11 (antibody, V domains shown, VH/VL only) VH: EVQLLESGGGLVQPGGSLRLSCAASGFTFSSYSMNWVRQAPGKGLEWVSGINYNGGYTSYADSVKGRFTISRDNSKNTLYLQMNSLRAEDTAVYYCARSANWHDTALDYWGQGTLVTVSS VL: DIQMTQSPSSLSASVGDRVTITCRASQSILSYVNWYQQKPGKAPKLVIYAATSRASGVPSRFSGSGSGTDFTLTISSLQPEDFATYYCQQSYDLPLTFGGGTKVEIK | 3.69 OD | 3.75 OD | 3.61 OD
376_C06 (antibody, V domains shown, VH/VL only) VH: EVQLLESGGGLVQPGGSLRLSCAASGFTFSSYGMNWVRQAPGKGLEWVAGINYNGGYTSYADSVKGRFTISRDNSKNTLYLQMNSLRAEDTAVYYCARSATWHDTALDYWGQGTLVTVSS VL: DIQMTQSPSSLSASVGDRVTITCRASQSILSYLNWYQQKPGKAPKLVIYAATSRASGVPSRFSGSGSGTDFTLTISSLQPEDFATYYCQQSYDSPLTFGGGTKVEIK | 3.49 OD | 3.56 OD | 3.43 OD
376_F03 (antibody, V domains shown, VH/VL only) VH: EVQLLESGGGLVQPGGSLRLSCAASGFTFDSYGMNWVRQAPGKGLEWVANINYNGGYTGYADSVKGRFTISRDNSKNTLYLQMNSLRAEDTAVYYCARSANWHDTALDYWGQGTLVTVSS VL: DIQMTQSPSSLSASVGDRVTITCRASQSIITYVNWYQQKPGKAPKLVIYATTSLASGVPSRFSGSGSGTDFTLTISSLQPEDFATYYCQQSYSSPLTFGGGTKVEIK | 3.29 OD | 3.47 OD | 3.44 OD
376_C01 (antibody, V domains shown, VH/VL only) VH: EVQLLESGGGLVQPGGSLRLSCAASGFTFDSYSMNWVRQAPGKGLEWVAGINYNGGYTSYADSVKGRFTISRDNSKNTLYLQMNSLRAEDTAVYYCARSANWHDTALDYWGQGTLVTVSS VL: DIQMTQSPSSLSASVGDRVTITCRASQSILTYLNWYQQKPGKAPKLLIYAATSLASGVPSRFSGSGSGTDFTLTISSLQPEDFATYYCQQSYDNPLTFGGGTKVEIK | 3.26 OD | 3.6 OD | 3.2 OD
376_B07 (antibody, V domains shown, VH/VL only) VH: EVQLLESGGGLVQPGGSLRLSCAASGFTFDSYSMNWVRQAPGKGLEWVSGINYNSGYTSYADSVKGRFTISRDNSKNTLYLQMNSLRAEDTAVYYCARSATWHDTALDYWGQGTLVTVSS VL: DIQMTQSPSSLSASVGDRVTITCRASQSILSYLNWYQQKPGKAPKLVIYYVSNRASGVPSRFSGSGSGTDFTLTISSLQPEDFATYYCQQSYDNPLTFGGGTKVEIK | 3.73 OD | 3.71 OD | 3.53 OD
376_E08 (antibody, V domains shown, VH/VL only) VH: EVQLLESGGGLVQPGGSLRLSCAASGFTFSDYGMNWVRQAPGKGLEWVAGINYNGGYTSYADSVKGRFTISRDNSKNTLYLQMNSLRAEDTAVYYCARSANWHDTALDYWGQGTLVTVSS VL: DIQMTQSPSSLSASVGDRVTITCRASQSIVSYVNWYQQKPGKAPKLVIYAATSRASGVPSRFSGSGSGTDFTLTISSLQPEDFATYYCQQSYDSPLTFGGGTKVEIK | 3.64 OD | 3.64 OD | 3.47 OD
376_B04 (antibody, V domains shown, VH/VL only) VH: EVQLLESGGGLVQPGGSLRLSCAASGFTFDSYGMHWVRQAPGKGLEWVASINYNGGYTGYADSVKGRFTISRDNSKNTLYLQMNSLRAEDTAVYYCARSANWHDTALDYWGQGTLVTVSS VL: DIQMTQSPSSLSASVGDRVTITCRASQSIVSYVNWYQQKPGKAPKLVIYAATSRASGVPSRFSGSGSGTDFTLTISSLQPEDFATYYCQQSYDTPLTFGGGTKVEIK | 3.41 OD | 3.48 OD | 3.58 OD
376_C12 (antibody, V domains shown, VH/VL only) VH: EVQLLESGGGLVQPGGSLRLSCAASGFTFSSYSMNWVRQAPGKGLEWVAGINYNGGYTGYADSVKGRFTISRDNSKNTLYLQMNSLRAEDTAVYYCARSANWHDTALDYWGQGTLVTVSS VL: DIQMTQSPSSLSASVGDRVTITCRASQSILTYVNWYQQKPGKAPKLLIYAATSRASGVPSRFSGSGSGTDFTLTISSLQPEDFATYYCQQSYDSPLTFGGGTKVEIK | 3.7 OD | 3.32 OD | 3.39 OD
376_C11 (antibody, V domains shown, VH/VL only) VH: EVQLLESGGGLVQPGGSLRLSCAASGFTFDSYSMNWVRQAPGKGLEWVAGINYNSGYKSYADSVKGRFTISRDNSKNTLYLQMNSLRAEDTAVYYCARSATWHDTHLDYWGQGTLVTVSS VL: DIQMTQSPSSLSASVGDRVTITCRASQSILTYLNWYQQKPGKAPKLVIYAATSRASGVPSRFSGSGSGTDFTLTISSLQPEDFATYYCQQSYDNPLTFGGGTKVEIK | 3.7 OD | 3.63 OD | 3.46 OD
376_B05 (antibody, V domains shown, VH/VL only) VH: EVQLLESGGGLVQPGGSLRLSCAASGFTFSSYSMNWVRQAPGKGLEWVANINYNGGYTGYADSVKGRFTISRDNSKNTLYLQMNSLRAEDTAVYYCARSANWHDTALDYWGQGTLVTVSS VL: DIQMTQSPSSLSASVGDRVTITCRASQSIISYVNWYQQKPGKAPKLLIYAATSRASGVPSRFSGSGSGTDFTLTISSLQPEDFATYYCQQSYELPLTFGGGTKVEIK | 3.65 OD | 3.78 OD | 3.52 OD
376_D11 (antibody, V domains shown, VH/VL only) VH: EVQLLESGGGLVQPGGSLRLSCAASGFTFSSYGMNWVRQAPGKGLEWVANINYNGGYTGYADSVKGRFTISRDNSKNTLYLQMNSLRAEDTAVYYCARSANWHDTALDYWGQGTLVTVSS VL: DIQMTQSPSSLSASVGDRVTITCRASQSILSYLNWYQQKPGKAPKLVIYAATSRASGVPSRFSGSGSGTDFTLTISSLQPEDFATYYCQQSYNNPLTFGGGTKVEIK | 3.7 OD | 3.62 OD | 3.43 OD
376_E03 (antibody, V domains shown, VH/VL only) VH: EVQLLESGGGLVQPGGSLRLSCAASGFTFSSYGMNWVRQAPGKGLEWVANINYNGGYTGYADSVKGRFTISRDNSKNTLYLQMNSLRAEDTAVYYCARSANWHDTALDYWGQGTLVTVSS VL: DIQMTQSPSSLSASVGDRVTITCRASQSILSYVNWYQQKPGKAPKLVIYAATSLASGVPSRFSGSGSGTDFTLTISSLQPEDFATYYCQQSYDLPLTFGGGTKVEIK | 3.79 OD | 3.74 OD | 3.42 OD
376_D05 (antibody, V domains shown, VH/VL only) VH: EVQLLESGGGLVQPGGSLRLSCAASGFTFSSYSMNWVRQAPGKGLEWVSNINYNGGYKGYADSVKGRFTISRDNSKNTLYLQMNSLRAEDTAVYYCARSANWHDTALDYWGQGTLVTVSS VL: DIQMTQSPSSLSASVGDRVTITCRASQSIVSYVNWYQQKPGKAPKLLIYAATSLASGVPSRFSGSGSGTDFTLTISSLQPEDFATYYCQQSYDTPLTFGGGTKVEIK | 3.6 OD | 3.71 OD | 3.34 OD
376_B09 (antibody, V domains shown, VH/VL only) VH: EVQLLESGGGLVQPGGSLRLSCAASGFTFDSYSMNWVRQAPGKGLEWVANINYNSGYKGYADSVKGRFTISRDNSKNTLYLQMNSLRAEDTAVYYCARSANWHDTALDYWGQGTLVTVSS VL: DIQMTQSPSSLSASVGDRVTITCRASQSILTYVNWYQQKPGKAPKLVIYAATSRASGVPSRFSGSGSGTDFTLTISSLQPEDFATYYCQQSYDLPLTFGGGTKVEIK | 3.78 OD | 3.72 OD | 3.51 OD
